The target in one assay is T1, Tie2 (Homo sapiens, UniProt Q02763).
T1 construct: endogenous in cells; host or cells: primary human lymphatic endothelial cells from infant foreskin
The experiment in a line: Western blotting of lymphatic endothelial cells (Tie2 phosphorylation). Type of assay: cell-based. Particulars: Western blot of Tie2 and phosphorylated Tie2, DMSO control, compared with Ang-1. The method, then:
Lymphatic endothelial cells were isolated from human infant foreskin as CD31-positive, CD34-negative, CD45-negative cells (Non-Patent Document 6). The lymphatic endothelial cells were cultured in EBM-2 (Cambrex, Verviers, Belgium) supplemented with addition factors, and protein was extracted with Phosphosafe Extraction Reagent (Novagen, Madison, Wis.) in the presence of various drugs (Ang-1, cinnamon bark extract, Siberian Ginseng extract and syringaresinol). Cells supplemented with DMSO were prepared as a control.
Furthermore, the cinnamon bark extract and syringaresinol were prepared in the manner indicated below. The Siberian Ginseng extract (Ask Intercity) was obtained by extracting Siberian Ginseng root with 30% ethanol. This extract was confirmed to contain 1.01% by weight syringaresinol by HPLC. This extract was then dissolved with DMSO for use as each test sample. The total amount of protein was determined with the RC DC Protein Assay Kit (BIO-RAD, Hercules, Calif.), and detected by Western blotting in the manner described below. An equal amount of total protein was subjected to SDS-PAGE using 7.5% acrylamide gel (NPU-7.5L, ATTO, Japan), and expression of Tie2 and phosphorylated Tie2 protein was confirmed by staining with an ECL Kit using […] (Santa Cruz Biotechnology, Santa Cruz, Calif.).
(In general: In western blotting, separated proteins are transferred to a membrane and probed.)

The next assay has as its system lymphatic vessels. The assay is described as follows: Lymph drainage assay (colloidal carbon injected into the auricle of mice infected with Ang-1 adenovirus). Type of assay: in vivo, mouse. As to the method: The auricles of 8-week-old mice were infected with adenovirus (1×10^9 ifu/mouse), in which mouse-derived angiopoietin-1 (Ang-1) gene was incorporated into an AdenoX vector, with a Hamilton syringe (Hamilton, Reno. NV). Mice were also infected with adenovirus incorporating only AdenoX vector as a control. 1 μl of colloidal carbon solution (Kamei Co., Ltd., Japan) was injected into the tip of the auricle with a Hamilton syringe followed by analysis of time-based changes in the flow of lymph. […] In addition, a visual assessment of changes in lymphatic vessel recovery function was also carried out, and comparisons were made by scoring to one of levels (5: all ink remaining in lymphatic vessels, 1: all ink recovered and no longer present in lymphatic vessels), the results of which are shown in FIG. 1.
In addition, after sacrificing the animals by anesthesia, the ears of the animals were simultaneously collected and crushed in liquid nitrogen followed by extraction of protein with Phosphosafe Extraction Reagent (Novagen, Madison, Wis.). The total amount of protein was determined with the RC DC Protein Assay Kit (BIO-RAD, Hercules, Calif.) and detected by Western blotting in the manner described below. […]

T1 sequence (Q02763 23-1124): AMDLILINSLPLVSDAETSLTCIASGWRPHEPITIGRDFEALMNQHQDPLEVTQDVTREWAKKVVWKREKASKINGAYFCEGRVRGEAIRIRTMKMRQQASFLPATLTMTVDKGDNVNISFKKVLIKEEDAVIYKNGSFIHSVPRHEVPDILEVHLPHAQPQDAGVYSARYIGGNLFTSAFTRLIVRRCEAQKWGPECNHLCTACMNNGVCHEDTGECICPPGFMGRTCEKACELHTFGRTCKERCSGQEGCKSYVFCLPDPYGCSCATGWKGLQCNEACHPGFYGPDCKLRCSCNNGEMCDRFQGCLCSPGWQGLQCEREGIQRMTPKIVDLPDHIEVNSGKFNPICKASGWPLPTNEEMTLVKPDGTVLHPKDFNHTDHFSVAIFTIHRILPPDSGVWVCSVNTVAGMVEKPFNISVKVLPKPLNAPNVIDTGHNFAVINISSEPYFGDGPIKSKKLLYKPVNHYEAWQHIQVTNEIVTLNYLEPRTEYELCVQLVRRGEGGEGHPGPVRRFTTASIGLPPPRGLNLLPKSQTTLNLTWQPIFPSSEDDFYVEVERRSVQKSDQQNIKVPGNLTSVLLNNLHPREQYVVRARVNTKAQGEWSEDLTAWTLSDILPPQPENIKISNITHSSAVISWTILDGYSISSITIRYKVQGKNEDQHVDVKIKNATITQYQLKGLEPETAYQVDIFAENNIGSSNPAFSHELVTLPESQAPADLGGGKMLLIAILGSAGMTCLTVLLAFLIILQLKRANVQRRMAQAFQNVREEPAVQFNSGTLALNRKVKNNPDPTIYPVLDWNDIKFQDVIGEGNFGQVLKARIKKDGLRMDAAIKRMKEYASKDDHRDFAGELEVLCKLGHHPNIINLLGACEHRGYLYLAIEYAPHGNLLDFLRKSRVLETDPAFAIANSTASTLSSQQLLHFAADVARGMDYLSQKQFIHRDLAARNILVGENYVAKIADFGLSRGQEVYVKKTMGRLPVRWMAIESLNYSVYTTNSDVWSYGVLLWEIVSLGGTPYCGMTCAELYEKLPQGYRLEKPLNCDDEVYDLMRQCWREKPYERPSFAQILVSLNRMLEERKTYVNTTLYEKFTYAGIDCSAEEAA

As to `COc1cc(C2OCC3C(c4cc(OC)c(O)c(OC)c4)OCC23)cc(OC)c1O` (stereo not drawn) [syringaresinol, Syringaresinol], the “Tie2 phosphorylation (activation)” value at Tie2 was “confirmed to activate Tie2 in the same manner as Ang-1”.

B1: angiopoietin 1 (protein, UniProt O08538 20-498, looked up)
Angiopoietin-1: SNQRRNPENGGRRYNRIQHGQCAYTFILPEHDGNCRESATEQYNTNALQRDAPHVEPDFSSQKLQHLEHVMENYTQWLQKLENYIVENMKSEMAQIQQNAVQNHTATMLEIGTSLLSQTAEQTRKLTDVETQVLNQTSRLEIQLLENSLSTYKLEKQLLQQTNEILKIHEKNSLLEHKILEMEGKHKEELDTLKEEKENLQGLVSRQTFIIQELEKQLSRATNNNSILQKQQLELMDTVHNLISLCTKEGVLLKGGKREEEKPFRDCADVYQAGFNKSGIYTIYFNNMPEPKKVFCNMDVNGGGWTVIQHREDGSLDFQRGWKEYKMGFGNPSGEYWLGNEFIFAITSQRQYMLRIELMDWEGNRAYSQYDRFHIGNEKQNYRLYLKGHTGTAGKQSSLILHGADFSTKDADNDNCMCKCALMLTGGWWFDACGPSNLNGMFYTAGQNHGKLNGIKWHYFKGPSYSLRSTTMMIRPLDF
modifications: adenovirus-expressed
notes: mouse-derived Ang-1 gene expressed from AdenoX adenovirus vector in vivo
On to B1, for which, in the assay on lymphatic vessels (ears of mice highly expressing Ang1 via adenovirus, 1 μl colloidal carbon into tip of auricle, vs AdenoX vector control, data not shown), the “lymphatic vessel recovery function (time-based changes in the flow of lymph)” value was “promoted”. The “lymphatic vessel recovery function, visual assessment score (5: all ink remaining, 1: all ink recovered)” value with lymphatic vessels (mouse auricle, Ang-1 adenovirus vs AdenoX vector control, FIG. 1) is “remarkable promotion of lymphatic vessel recovery function”.

The values are drawn from US8367124B2, “Lymphatic vessel stabilizer” (Shiseido Company, Ltd., priority 2008, dated 2013).
